The values below come from doi:10.1101/2024.10.25.620210.

In the assay the target is α subunit of the Sinapis alba plastid-encoded RNA polymerase (SaPEP) (Sinapis alba) (UniProt Q9XQN8). The assay is described as follows: cryo-EM structure.

The term stoichiometry N denotes a count of units in the complex or per binding partner. “α subunit of the Sinapis alba plastid-encoded RNA polymerase (SaPEP) (from UniProt Q9XQN8 1-327) (natural protein)” gave a stoichiometry N of 2.
